The target in one series is T1, IL-1R1 (UniProt P14778 18-332, limits assumed).
T1 construct: also called IL-R1
T1 sequence (looked up): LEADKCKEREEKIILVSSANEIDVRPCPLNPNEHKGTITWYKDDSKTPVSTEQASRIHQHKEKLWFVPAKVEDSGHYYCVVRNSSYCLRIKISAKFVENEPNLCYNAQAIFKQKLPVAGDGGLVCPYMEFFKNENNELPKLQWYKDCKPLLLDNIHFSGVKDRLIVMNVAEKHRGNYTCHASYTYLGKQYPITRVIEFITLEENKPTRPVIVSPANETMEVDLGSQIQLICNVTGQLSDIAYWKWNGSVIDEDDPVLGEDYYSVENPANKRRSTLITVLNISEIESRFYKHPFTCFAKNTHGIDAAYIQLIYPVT
The series is described as follows: Receptor Binding Assay, inhibition of IL-1 binding to IL-R1.

Series [1] deals with the molecule itself. The series is described as follows: analytical ultracentrifugation, sedimentation velocity; monomer/dimer self-association.
Series [2] deals with the molecule itself. Briefly: analytical ultracentrifugation, sedimentation equilibrium; monomer/dimer self-association.
In series [3] the target is T2, TNFR1-FC fusion (human, UniProt P19438 30-211, limits assumed).
T2 construct: not shown: Fc part, captured by goat anti-human IgG; not described further
T2 sequence (looked up): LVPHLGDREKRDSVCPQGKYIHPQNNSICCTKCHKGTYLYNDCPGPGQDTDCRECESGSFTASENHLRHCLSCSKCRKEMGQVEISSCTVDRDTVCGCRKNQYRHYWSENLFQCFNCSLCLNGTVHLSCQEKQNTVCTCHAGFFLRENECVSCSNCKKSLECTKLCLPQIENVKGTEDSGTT
Briefly: TNFR1 receptor binding assay: TNFR1-Fc on beads, TNF-alpha 10 ng/ml, ABI 8200; average of 3 experiments.

In series [4] the target is T3, human TNFR1, soluble recombinant protein (human, UniProt P19438 22-211, limits assumed, biotinylated in the BIAcore assays (coupling via primary amines)).
T3 construct: also called biotinylated TNFR1; human recombinant E. coli-expressed human TNFR1
T3 sequence (looked up): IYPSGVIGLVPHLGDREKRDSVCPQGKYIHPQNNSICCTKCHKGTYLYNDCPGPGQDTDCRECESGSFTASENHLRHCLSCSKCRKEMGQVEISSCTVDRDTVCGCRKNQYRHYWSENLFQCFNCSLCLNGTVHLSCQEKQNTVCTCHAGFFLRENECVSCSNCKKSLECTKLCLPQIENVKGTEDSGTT
Briefly: BIAcore 3000, dAb over biotinylated human TNFR1 (1400 RU) on SA chip, 1:1 fit, 25 C, mean of 3 experiments.

Series [5] has as its target T2, TNFR1-FC fusion. The series is described as follows: TNFR-1 receptor binding assay (RBA): inhibition of the binding of TNF-alpha to TNFR1 by the dAb; T0 sample.
The target of series [6] is T2, TNFR1-FC fusion. Briefly: TNFR-1 receptor binding assay (RBA): inhibition of the binding of TNF-alpha to TNFR1 by the dAb; sample after 14 days at 50 C in Britton-Robinson buffer, concentration assumed to be 1 mg/ml.
A further series deals with T4, TNFR1 on MRC-5 cells (UniProt P19438 30-455, limits assumed).
T4 sequence (looked up): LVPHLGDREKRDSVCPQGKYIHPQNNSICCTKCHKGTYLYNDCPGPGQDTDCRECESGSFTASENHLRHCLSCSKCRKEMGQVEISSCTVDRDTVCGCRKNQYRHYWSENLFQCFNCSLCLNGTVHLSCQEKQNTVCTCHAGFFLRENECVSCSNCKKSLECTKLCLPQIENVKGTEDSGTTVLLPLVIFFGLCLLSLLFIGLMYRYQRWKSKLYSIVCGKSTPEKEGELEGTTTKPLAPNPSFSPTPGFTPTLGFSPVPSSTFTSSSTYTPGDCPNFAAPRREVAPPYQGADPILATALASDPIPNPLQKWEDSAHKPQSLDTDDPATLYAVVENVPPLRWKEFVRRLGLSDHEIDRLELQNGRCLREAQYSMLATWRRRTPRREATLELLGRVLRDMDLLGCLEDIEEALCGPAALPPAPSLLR
Briefly: cell-based or functional assay.

In series [7] the target is T2, TNFR1-FC fusion. The series is described as follows: human TNFR1 receptor binding assay; dAb blocks binding of TNF-alpha (10 ng/ml) to bead-captured TNFR1-Fc; four replicates.
Series [8] deals with the molecule itself. The series is described as follows: analytical ultracentrifugation, sedimentation equilibrium; monomer/dimer self-association; self-association (monomer to dimer) of the dAb by AUC sedimentation equilibrium, 0.5 mg/ml to 5 mg/ml.
Series [9] deals with the molecule itself. Briefly: analytical ultracentrifugation, sedimentation equilibrium; self-association.
For series [10], the target named is T5, recombinant human VEGF (human, UniProt P15692-4 27-191, limits assumed, biotinylated in the selections, phage ELISA and BIAcore screening).
T5 construct: also called hVEGF; VEGFA
T5 sequence (P15692 other isoform, or with tags, fused parts or gaps limits assumed): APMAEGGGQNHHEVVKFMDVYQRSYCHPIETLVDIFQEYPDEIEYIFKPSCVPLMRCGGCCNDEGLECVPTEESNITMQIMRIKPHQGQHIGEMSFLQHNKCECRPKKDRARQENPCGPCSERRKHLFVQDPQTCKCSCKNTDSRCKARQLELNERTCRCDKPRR
The series is described as follows: BIAcore kinetics.

In series [11] the target is T5, recombinant human VEGF. The series is described as follows: receptor binding assay.
For series [12], the target named is T5, recombinant human VEGF. The series is described as follows: RBA assay; taken as the Fc fusion of the row.

B1: DOM4-130-54 (other)
VL: DIQMTQSPSSLSASVGDRVTITCRASQDIYLNLDWYQQKPGKAPKLLINFGSELQSGVPSRFSGSGYGTDFTLTISSLQPEDFATYYCQPSFYFPYTFGQGTKVEIKR
notes: VK domain antibody (dAb) against IL-1R1
In the case of B1, in the series with IL-1R1, the IC50 came out at 0.28 nM.

B2: DOM4-130-201 (other)
VL: DIQMTQSPSSLSASVGDRVTITCRASQDIYLNLDWYQQKPGKAPKLLIKFGSELQSGVPSRFSGSGYGTDFTLTISNLQPEDFATYYCQPSFYFPYTFGQGTKVEIKW
notes: VK dAb against IL-1R1, trypsin-selected variant of DOM4-130-54
In the series with IL-1R1, B2 had an IC50 of 0.257 nM.

B3: DOM4-130-202 (other)
VL: DIQMTQSPSSLSASVGDRVTISCRASQDIYLNLDWYQQKPGKAPKLLISFGSELQSGVPSRFSGSGYGTDFTLTISSLQPEDSATYYCQPSFYYPYTFGQGTKVEIKR
notes: as for B2
Consider B3, for which the IC50 with IL-1R1 came to 0.254 nM.

B4: DOM1h-131-202 (other)
VH: EVQLLESGGGLVQPGGSLRLSCAASGFTFAHETMVWVRQAPGKGLEWVSHIPPDGQDPFYADSVKGRFTISRDNSKNTLYLQMNSLRAEDTAVYYCALLPKRGPWFDYWGQGTLVTVSS
notes: human VH dAb against TNFR1; also called GSK1922567A
Consider B4, for which the figures for the dissociation constant (Kd) in series [1], in [2] and in series [4] were 1000 nM, 1300 nM and 0.55 nM, respectively. Further, the EC50 in the series with TNFR1-FC fusion [3] was 0.11 nM. In addition, the “IC50 (read off the curve)” value in the series with TNFR1-FC fusion [5] and in the series with TNFR1-FC fusion [6] was around 0.1 nM in each case.

B5: DOM1h-131-206 (other)
VH: EVQLLESGGGLVQPGGSLRLSCAASGFTFAHETMVWVRQAPGKGLEWVSHIPPDGQDPFYADSVKGRFTISRDNSKNTLYLQMNSLRAEDTAVYHCALLPKRGPWFDYWGQGTLVTVSS
notes: human VH dAb against TNFR1; also called GSK1995057A
As for B5, the “ND50 nM, MRC-5 cell-based assay (230307CE)” value (from here on “ND50 nM”) in the series with TNFR1 on MRC-5 cells is 0.71 nM. The response with TNFR1-FC fusion [3] was half-maximal at 0.07 nM (EC50). Further, the Kd was found to be 0.47 nM in [4] and 360000 nM in series [8]. Also, in the series with TNFR1-FC fusion [7], the “IC50 (read off the curve)” value was around 0.07 nM.

B6: DOM1h-131-203 (other)
VH: EVQLWESGGGLVQPGGSLRLSCAASGFTFAHETMVWVRQAPGKGLEWVSHIPPDGQDPFYADSVKGRFTISRDNSKNTLYLQMNSLRAEDTAVYYCALLPKRGPWIDYWGQGTLVTVSS
Regarding B6, in the series with TNFR1 on MRC-5 cells, the “ND50 nM” value was 2.28 nM.

B7: DOM1h-131-204 (other)
VH: EVQLSESGGGLVQPGGSLRLSCAASGFTFAHETMVWVRQAPGKGLEWVSHIPPDGQDPFYADSVKGRFTISRDNSKNTLYLQMNSLRAEDTAVYYCALLPNRGPWFDYWGQGTLVTVSS
For B7, in the series with TNFR1 on MRC-5 cells, the “ND50 nM” value amounted to 1.89 nM.

B8: DOM1h-131-511 (other)
VH: EVQLLESGGGLVQPGGSLRLSCAASGFTFAHETMVWVRQAPGKGLEWVSHIPPVGQDPFYADSVKGRFTISRDNSKNTLYLQMNSLRAEDTAVYYCALLPKRGPWFDYWGQGTLVTVSS
notes: human VH domain antibody (dAb) against TNFR1; also called GSK1995056A
For the molecule B8, the “ND50 nM” value with TNFR1 on MRC-5 cells was 1.89 nM. Moreover, in series [9], the binding result is “binds”. The same molecule yielded an EC50 with TNFR1-FC fusion [3] of 0.19 nM. Also, the Kd in [4] stood at 1.07 nM. Besides, the “IC50 (read off the curve)” value in the series with TNFR1-FC fusion [7] was around 0.2 nM.

B9: DOM15-10 (other)
VL: DIQMTQSPSSLSASVGDRVTITCRASQWIGPELSWYQQKPGKAPKLLIYHTSILQSGVPSRFSGSGSGTDFTLTISSLQPEDFATYYCQQYMFQPRTFGQGTKVEIRR
notes: VK dAb against VEGF
As to B9, in the series with recombinant human VEGF [10], the Kd was found to be 23.6 nM. In addition, in the series with recombinant human VEGF [11], the EC50 was 10.2 nM.

B10: DMS1546 (Fc fusion)
VL: DIQMTQSPSSLSASVGDRVTITCRASQWIGPELSWYQQKPGKAPKLLIYHTSILQSGVPSRFSGSGSGTDFTLTISSLQPEDFATYYCQQYMFQPRTFGQGTKVEIRR
modifications: disulfide-linked homodimer of this chain (bivalent dAb-Fc)
notes: dAb-Fc; also called DOM15-10 Fc fusion; not shown: TVAAPS linker and human IgG1 Fc
On to B10, for which, in the series with recombinant human VEGF [12], the “Activity (nM), RBA assay” value worked out at 0.913 nM.

B11: DMS1531 (Fc fusion)
VL: DIQMTQSPSSLSASVGDRVTITCRASQWIGPELRWYQQKPGKAPKLLIYHTSILQSGVPSRFSGSGSGTDFTLTISSLQPEDFATYYCQQYMFQPMTFGQGTKVEIRG
modifications: disulfide-linked homodimer of this chain (bivalent dAb-Fc)
notes: dAb-Fc; also called DOM15-10-11 Fc fusion; not shown: TVAAPS linker and human IgG1 Fc
As to B11, the “Activity (nM), RBA assay” value with recombinant human VEGF [12] amounted to 0.577 nM.

B12: DOM15-10-11 (other)
VL: DIQMTQSPSSLSASVGDRVTITCRASQWIGPELRWYQQKPGKAPKLLIYHTSILQSGVPSRFSGSGSGTDFTLTISSLQPEDFATYYCQQYMFQPMTFGQGTKVEIRG
notes: VK dAb against VEGF, trypsin-selected variant of DOM15-10
Regarding B12, the Kd in the series with recombinant human VEGF [10] was determined as 14.6 nM. Moreover, the EC50 with recombinant human VEGF [11] was determined as 3.58 nM.

Source of the values: US20100260763A1 (DOMANTIS, published 2010).
